According to patent US20240382677A1 (Regeneron, published 2024):

T1: monkey PD-1 with mFc (monkey PD-1-mFc) (monkey)
T1 construct: also called monkey PD-1 dimer; MfPD-1 dimer
T1 chain: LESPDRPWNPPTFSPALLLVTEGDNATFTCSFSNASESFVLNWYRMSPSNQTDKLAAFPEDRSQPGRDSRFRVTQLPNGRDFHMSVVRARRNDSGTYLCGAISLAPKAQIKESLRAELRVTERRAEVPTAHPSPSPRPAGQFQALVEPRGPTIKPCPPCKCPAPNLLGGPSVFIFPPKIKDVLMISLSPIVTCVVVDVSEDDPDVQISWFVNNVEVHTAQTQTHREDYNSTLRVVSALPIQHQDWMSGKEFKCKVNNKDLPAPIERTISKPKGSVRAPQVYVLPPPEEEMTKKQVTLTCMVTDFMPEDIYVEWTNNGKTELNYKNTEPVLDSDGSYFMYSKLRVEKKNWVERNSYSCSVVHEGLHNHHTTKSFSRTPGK


Key:
[1] = molecular target: T1, monkey PD-1 with mFc (monkey PD-1-mFc); test: SPR 37C, mAb captured;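 note: Real-time binding of antigen to purified anti-PD-1 antibodies, measured by surface plasmon resonance on a Biacore 4000 or T200 instrument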
Description: (§1) Binding association and dissociation rate constants (ka and kd, respectively), equilibrium dissociation constants and dissociation half-lives (KD and t½, respectively) for antigen binding to purified anti-PD1 antibodies were determined using a real-time surface plasmon resonance biosensor assay on a Biacore 4000 or Biacore T200 instrument. […] Experiments were performed at 25° C. and 37° C. Kinetic association (ka) and dissociation (kd) rate constants were determined by processing and fitting the data to a 1:1 binding model using Scrubber 2.0c curve fitting software. Binding dissociation equilibrium constants (KD) and dissociative half-lives (t½) were then calculated from the kinetic rate constants as: KD (M)=kd/ka and t½ (min)=[ln 2/(60*kd)].

[2] = molecular target: T1, monkey PD-1 with mFc (monkey PD-1-mFc); test: SPR 25C, mAb captured
Description: as §1

[3] = molecular target: recombinant human PD-1 expressed with a C-terminal human IgG1 Fc tag (hPD-1-hFc) (human); test: SPR Biacore 3000, captured hPD-L1-mFc
recombinant human PD-1 expressed with a C-terminal human IgG1 Fc tag (hPD-1-hFc) (human), sequence (chain, as listed by the source limits assumed): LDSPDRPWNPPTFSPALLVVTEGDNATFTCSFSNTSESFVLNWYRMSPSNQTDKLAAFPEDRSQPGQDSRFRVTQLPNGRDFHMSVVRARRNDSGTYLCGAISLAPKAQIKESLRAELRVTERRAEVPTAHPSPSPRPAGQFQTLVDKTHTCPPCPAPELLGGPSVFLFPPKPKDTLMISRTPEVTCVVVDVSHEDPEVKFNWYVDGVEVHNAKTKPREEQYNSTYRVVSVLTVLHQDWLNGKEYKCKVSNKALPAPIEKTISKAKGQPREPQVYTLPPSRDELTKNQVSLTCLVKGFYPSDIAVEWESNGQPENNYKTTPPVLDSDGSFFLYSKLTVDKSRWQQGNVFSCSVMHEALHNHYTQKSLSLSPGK
Description: Next, inhibition studies for anti-PD-1 monoclonal antibodies expressed with human Fc were performed on a Biacore 3000 instrument. […] The real-time binding responses were monitored during the entire course of the experiment and the binding response at the end of every step was recorded.

[4] = molecular target: T2, recombinant human PD-1 dimer expressed with a C-terminal mouse IgG2a Fc tag (hPD-1-mFc) (human); test: BLI Octet Red 96, captured hPD-L1-hFc
T2 construct: also called human PD-1-mFc
Description: Inhibition studies for anti-PD-1 monoclonal antibodies expressed with a mouse Fc were performed on an Octet Red 96 instrument. […] The biosensors were washed in Octet HBST buffer in between each step of the experiment. The real-time binding responses were monitored during the entire course of the experiment and the binding response at the end of every step was recorded.

Binder	100 nM Monkey PD-1-mFc Bound [1] [RU]	t½ [1] [min]	100 nM Monkey PD-1-mFc Bound [2] [RU]	t½ [2] [min]	binding of the mixture of 100 nM hPD-1-mFc and 500 nM antibody [4] [nm]	other results
H2aM7791N (antibody, mouse IgG2a, V domains shown, mouse IgG2a Fc; human variable regions; also called H2M7791N) VH: QMQLQQWGAGLLKPSETLSLTCVVYGGSLNGYYWSWIRQSPGKGLEWIGEIDHSGSTNYNPSLKNRVTMSVDTSKIQFSLKLTSVTVADTAVYYCAREGLLPFDYWGQGTLVTVSS VL: EIVLTQSPGTLSLSPGERVTLSCRASQSVYSNYLAWYQQNPGQAPRLLIYAASNRATGIPDRFSGSGSGTDFTLTISRLEPEDFAVYYCHQYATSPWTFGQGTKVEIK					0.23	
H2aM7796N (antibody, mouse IgG2a, V domains shown, mouse IgG2a Fc; human variable regions; also called H2M7796N) VH: QVQLVESGGGVVQPGRSLRLSCAASGFTFSSYGMHWVRQAPGKGLEWVAIIWSDGDSEYNLDSVKGRFTISRDNSKNTLYLQMNSLRVEDSAVYYCARDRDLEDIWGQGTMVTVSS VL: DIQMTQSPSSLSASVGDRVTITCRASQGIRNDLGWYQQKPGKAPKRLIYAASNLQSGVPSRFSGSGSGTEFTLTISSLQPEDFATYYCLQHNSYPLTFGGGTKVEIK					-0.02	
H2aM7798N (antibody, mouse IgG2a, V domains shown, mouse IgG2a Fc; human variable regions; also called H2M7798N) VH: EVQLLESGGVLVQPGGSLRLSCAASGFTFSNFGMTWVRQAPGKGLEWVSGISGGGRDTYFADSVKGRFTISRDNSKNTLYLQMNSLKGEDTAVYYCVKWGNIYFDYWGQGTLVTVSS VL: DIQMTQSPSSLSASVGDSITITCRASLSINTFLNWYQQKPGKAPNLLIYAASSLHGGVPSRFSGSGSGTDFTLTIRTLQPEDFATYYCQQSSNTPFTFGPGTVVDFR					0.01	
H2aM7795N (antibody, mouse IgG2a, V domains shown, mouse IgG2a Fc; human variable regions; also called H2M7795N) VH: EVQVVESGGGLVEPGRSLRLSCKASGFTFDDYAMHWVRQTPGKALEWVSGINWSGNNIGYADSVKGRFTISKDDAKNSLYLQMNSLRPEDTALYYCTKDISITGTLDAFDVWGQGTMVTVSS VL: DIQMTQSPISVSASVGDRVTITCRASQGISNWLAWYQQKPGIAPKLLIYSASSLQSGVPSRFRGSGSGTDFTLTIGSLQPEDFATYYCQQAHSFPLTFGGGTKVEIK					-0.01	
H1M7799N (antibody, mouse IgG1, V domains shown, mouse IgG1 Fc; human variable regions) VH: EVQLVESGGGLVQPGGSLRLSCAASGFTVSNNYMSWVRQAPGKGLEWVSVIYSGGFTYYTDSVKGRFTISRHNSKNTLYLQMNSLRAEDTAVYYCARYYYDTSDYWTFFDYWGQGTLVTVSS VL: EIVMTQSPATLSVSPGERATLSCRASQSVSSNLAWYQQKPGQAPRLLIYGASTRATGIPARFSGSGSGTEFTLTISSLQSGDFAVYYCQQYNNWPLTFGGGTKVEIN					0	
H1M7800N (antibody, mouse IgG1, V domains shown, mouse IgG1 Fc; human variable regions) VH: EVQLVESGGGLVQPGGSLRLSCAASGFTVSNNYMSWVRQAPGKGLEWVSVIYSGGFTYYTDSVKGRFTISRHNSKNTLYLQMNSLRAEDTAVYYCARYYYDTSDYWTFFDYWGQGTLVTVSS VL: EIVMTQSPATLSVSPGERATLSCRASQSVSSNLAWYQQKPGQAPRLLIYGASTRATGIPARFSGSGSGTEFTLTISSLQSGDFAVYYCQQYNNWPLTFGGGTKVEIN					0	
H1M7789N (antibody, mouse IgG1, V domains shown, mouse IgG1 Fc; human variable regions; also called H1M7789W) VH: EVQLLESGGGLVQPGGSLRLSCSASGFTFSSYTMNWVRQAPGKGLEWVSGISDTGGNTYYTDSVKGRFTVSRDNSKNTLSLQMNSLRAEDTAVYYCAKDQGGSYPYYFHYWGQGSLVTVSS VL: DIQMTQSPSSLSASVGDRVTITCRASQSISSYLIWYQQKPGTAPKFLIYAASSLQSGVPSRFSGCGSGTDFTLTISSLQPEDFATYYCQQSYSTPPITFGQGTRLEIK					0.05	
H2aM7794N (antibody, V domains shown, mouse IgG2a Fc; human variable regions; also called H2M7794N) VH: QLQLQESGPDLVKPSDTLSLTCTVSDDSISSTTYYWAWIRQPPGKGLEWIGSMSYNGNNYYNPSLKSRVAISAGTSQKQFSLKLTSVTAADTAVYHCARHLGYNGNWYPFDFWGQGILVTVSS VL: not shown					-0.01	
H2aM7788N (antibody, mouse IgG2a, V domains shown, mouse IgG2a Fc; human variable regions; also called H2M7788N) VH: EVQLVESGGGLVQPGGSLRLSCGASGFTFRNYDMHWVRQITGKGLEWVSAIGSAGDTYYPDSVKGRFTISRENAKNSLYLQMNSLRVGDTAVYYCTRDIHCSSTRCYGMDVWGQGTTVTVSS VL: not shown					0	

Continued, in another order:

100 nM Monkey PD-1-mFc Bound [1] [RU]	t½ [1] [min]	100 nM Monkey PD-1-mFc Bound [2] [RU]	t½ [2] [min]	binding of the mixture of 100 nM hPD-1-mFc and 500 nM antibody [4] [nm]	Binder	other results
40	19	78	116		H4xH9035P (antibody, V domains shown) VH: EVQLVESGGRVVRPGGSLRLSCAASGFTFDDYGMSWVRQLPGKGLEWVAGISWNDGKTVYAESVKGRFIISRDNAKNSLHLEMNSLRAEDTALYYCARDWQYLIDRYFDFWGQGTLVTVSS VL: not shown	
65	8	78	69		H4xH9045P (antibody, V domains shown) VH: EVQLVESGGGLVQPGRSLRLSCAASGFTFDDYDMHWVRQAPGKGLEWVSGSGWNRGSLGYADSVKGRFTISRDNAKKSLYLQMNSVRVEDTALYYCAKGFVVVSAAYFDYWGQGTLVTVSS VL: not shown	
40		83	67		H4xH9119P2 (antibody, V domains shown, human IgG4 Fc with 2 or more amino acid changes (US20100331527)) VH: EVQLVESGGGLVQPGRSLRLSCAASGFTFEDYAMHWVRQAPGKGLEWVSGIGWSNVKIGYADSVKGRFTISRDNVRNSLYLQMNSLRTEDTAFYYCVKAYTSMLTLYFDYWGQGTLVTVSS VL: not shown	binding of the mixture of 100 nM hPD-1-hFc and 500 nM antibody [3]: -5 RU
24		58	84		H4xH9037P (antibody, V domains shown) VH: EVQLVESGGGLVQPGGSLRLSCAASGFTFDDYAMHWVRQAPGKGLEWVSGIGWSSGSIGYADSVKGRFTISRDNAKNSLYLQMDSLRPEDSALYYCAKAYTFMITLYFDYWGQGTLVTVSS VL: not shown	
28	2.4	75	38		H4H9057P2 (antibody, V domains shown) VH: EVQLVESGGGLVQSGRSLRLSCAASGFTFDDYAMHWVRQPPGKGLEWVSGINWNRGRTGYADSVKGRFTISRDNAKNSLYLQMNDLRVEDTALYYCAKAEQWLDEGYFDYWGQGTLVTVSS VL: not shown	Kd [2]: 2.96 nM
84		115	63		H4xH9048P2 (antibody, V domains shown) VH: QVQLVQSGAEVKRPGSSVKVSCKVSGVTFRNFAIIWVRQAPGQGLEWMGGIIPFFSAANYAQSFQGRVTITPDESTSTAFMELASLRSEDTAVYYCAREGERGHTYGFDYWGQGTLVTVSS VL: not shown	
98			200		H4xH9008P (antibody, V domains shown, human IgG4 Fc with 2 or more amino acid changes (US20100331527)) VH: EVQLVESGGGLVRPGGSLRLSCAASGFTFSTYAMAWVRQTPGKGLEGVSAIGGSGDSTYYVDSVKGRFTISRDNSKSTLFLQMNSLRAEDTAVYYCVKVRNYDGSFDIWGQGTMVTVSS VL: not shown	
88	91	93	188		H4H7798N (antibody, human IgG4 S228P, kappa, V domains shown, human IgG4 Fc; also called REGN2810; cemiplimab) VH: EVQLLESGGVLVQPGGSLRLSCAASGFTFSNFGMTWVRQAPGKGLEWVSGISGGGRDTYFADSVKGRFTISRDNSKNTLYLQMNSLKGEDTAVYYCVKWGNIYFDYWGQGTLVTVSS VL: DIQMTQSPSSLSASVGDSITITCRASLSINTFLNWYQQKPGKAPNLLIYAASSLHGGVPSRFSGSGSGTDFTLTIRTLQPEDFATYYCQQSSNTPFTFGPGTVVDFRR	
6	1.1	17	4		H4H9068P2 (antibody, V domains shown) VH: EVQLVESGGGLVQRGGSLRLSCAASGFSFSSYAMNWVRQAPGKGLEWVSTISDSGGSTYYADSVKGRFTISRDNSKNTLSLQMNSLRAEDTAVYYCAKDQGGSYPYYFHYWGQGTLVTVSS VL: not shown	% Blocking [3]: -265%; binding of the mixture of 100 nM hPD-1-hFc and 500 nM antibody [3]: 365 RU
86	8	122	46		H4xH8992P (antibody, V domains shown, human IgG4 Fc with 2 or more amino acid changes (US20100331527)) VH: EVQLVESGGGLVQPGRSLRLSCVASGFALHDYAMHWVRQVPGKGLEWVSSISWNSGVIGYADSLKGRFTISRDNAKNSLYLQMNSLRAEDTALYYCAKGSGSYYVSWFDPWGQGTLVTVSS VL: not shown	
47	40	60	116		H4H7795N2 (antibody, human IgG4 S228P, kappa, V domains shown, human IgG4 Fc) VH: EVQVVESGGGLVEPGRSLRLSCKASGFTFDDYAMHWVRQTPGKALEWVSGISWSGNNIGYADSVKGRFTISKDDAKNSLYLQMNSLRPEDTALYYCTKDISITGTLDAFDVWGQGTMVTVSS VL: DIQMTQSPISVSASVGDRVTITCRASQGISNWLAWYQQKPGIAPKLLIYSASSLQSGVPSRFRGSGSGTDFTLTIGSLQPEDFATYYCQQAHSFPLTFGGGTKVEIKR	
83	23	128	100		H4xH8999P (antibody, V domains shown, human IgG4 Fc with 2 or more amino acid changes (US20100331527)) VH: QLQLQESGPGLVQPSETLSLTCTVSGDSISSTAYHWDWIRQPPGKGLEWIGTITYNGNTYFNPSLKSRVTISVDTSKNQFSLKLLSMTAAETAVFYCARHLGYNSDFFPFDFWGQGTLVTVSS VL: not shown	
